Four molecules from PMC10624691, “HSPA8 acts as an amyloidase to suppress necroptosis by inhibiting and reversing functional amyloid formation” (Cell Research, 2023) can be followed below.

Data set [1] deals with the molecule itself. In words: seeded fibril growth assay (ThT fluorescence, negative-stain EM, pelleting); sonicated fibril seeds (0.5 uM) with monomers (5 uM), with or without HSPA8 (5 uM); 30 C by the methods, 37 C for 2 h by the legend of Fig. 3c; fibrils pelleted at 12,000 g.
Data set [2] concerns the target T1, recombinant hHSPA8-CT (C-terminal fragment 385-647, SBD; 6xHis-Sumo) (human, UniProt P11142 385-646).
T1 construct: human HSPA8 C-terminal fragment, residues 385-647 as printed; also called HSPA8-SBD; HSPA8 SBD domain; source: E. coli BL21 (DE3), purified (Ni-NTA, Superdex 200)
Put plainly: negative staining immunogold EM; RIP3 fibrils with HSPA8-SBD on grids; anti-HSPA8 antibody 1:100, anti-rabbit gold-conjugated antibody. As to conditions: both partners purified.

Data set [3] has as its target T2, GST-tagged HSPA8-SBD domain (GST-HSPA8-SBD 385-647) ( (human or mouse cDNA cloned), UniProt P11142 385-646).
T2 construct: The plasmid methods name only 6xHis-Sumo constructs for E. coli; the GST construct is not described there; source: E. coli, purified
Put plainly: pull-down; His pull-down on Ni-NTA; His-Sumo-RIP3(388-518)-4A as bait, GST-HSPA8-SBD as prey; mixed 1:1 (50 uM each) for 6 h at 4 C. The note with it: both partners purified.

Positions count from the first letter of the chain named.

T1 sequence (P11142 385-646): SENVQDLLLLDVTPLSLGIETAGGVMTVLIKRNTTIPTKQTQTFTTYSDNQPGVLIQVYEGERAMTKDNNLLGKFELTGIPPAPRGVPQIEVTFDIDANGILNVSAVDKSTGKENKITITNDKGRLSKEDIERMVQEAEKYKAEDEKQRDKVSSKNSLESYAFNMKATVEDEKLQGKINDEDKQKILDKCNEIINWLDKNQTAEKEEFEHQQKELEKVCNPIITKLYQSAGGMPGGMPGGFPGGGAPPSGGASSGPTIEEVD
T2 sequence (P11142 385-646): as above

B1: TRIF(677-698) (peptide, UniProt Q8IUC6 677-698, looked up)
peptide: QPLIIHHAQMVQLGLNNHMWNQ
notes: TRIF residues 677-698; source: custom-made by WuXi AppTec
In the case of B1, the binding result in data set [1] is “binds”.

B2: RIP1(497-582) (domain or fragment, human, UniProt Q13546 497-582, looked up)
chain: MPSLHNIPVPETNYLGNTPTMPFSSLPPTDESIKYTIYNSTGIQIGAYNYMEIGGTSSSLLDSTNTNFKEEPAAKYQAIFDNTTSL
notes: the reagents paragraph prints 498-582; two first limits printed (497 and 498); also called RIP1_((498-582)); source: recombinant, generated previously
As to B2, the binding result in data set [1] is “binds”.

B3: hRIP3(388-518) tagged with 6xHis-Sumo (RIP3 fibrils of Fig. 4) (domain or fragment, human, UniProt Q9Y572 388-518, looked up)
chain: SSDSMAQPPQTPETSTFRNQMPSPTSTGTPSPGPRGNQGAERQGMNWSCRTPEPNPVTGRPLVNIYNCSGVQVGDNNYLTMQQTTALPTWGLAPSGKGRGLQHPPPVGSQEGPKDPEAWSRPQGWYNHSGK
notes: human RIP3 residues 388-518; also called RIP3 amyloids; source: E. coli BL21 (DE3), purified (Ni-NTA, Superdex 200)
B3: the binding result in data set [2] is listed as “binds”.

B4: His-Sumo-RIP3(388-518)-4A (domain or fragment, human, UniProt Q9Y572 388-518, looked up)
chain: B3 chain with V71A, Q72A, V73A, G74A
notes: human RIP3 residues 388-518 with the RHIM core VQVG replaced by AAAA; also called His-tagged RIP3-RHIM-4A; His-tagged RHIM-4A-containing RIP3 (388-518 aa); source: E. coli, purified
B4: the binding result in data set [3] was “binds”.
